Measurements: US6416758B1 (Board of Regents, The University of Texax System, priority 1999, dated 2002)

Assays:
GUS enzymatic activity = type: biochemical
Description: The 6-His GUS was pure based upon SDS-PAGE, where it ran as a single band of 75 kDa band. On gel filtration columns, the 6-His GUS runs as a tetramer of about 300 kDa.

[1] = Blood clearance of radioiodinated 2C3-GUS; type: in vivo, mouse; settings: 125I-labelled, intravenous injection into mice
Description: 2C3-GUS was radioiodinated with ^125I to a specific activity of 5×10^6 cpm/μg. After intravenous injection into mice, the radioiodinated 2C3-GUS cleared from the blood with a t½α of about 6 hours and a t 1/2β of about 25 hours.

[2] = tested on: human NCI-H358 NSCLC tumors; assay: In vivo localization of 2C3-GUS; parameters: species or system mouse; settings: SCID mice bearing s.c. NCI-H358
[3] = biological target: T1, VEGF alone or VEGF associated with sFlk-1 (VEGF:Flk-1) (Homo sapiens, UniProt P15692); assay: Indirect and capture ELISA, VEGF alone vs VEGF associated with sFlk-1; type: binding
T1 sequence (P15692 27-191 isoform P15692-4): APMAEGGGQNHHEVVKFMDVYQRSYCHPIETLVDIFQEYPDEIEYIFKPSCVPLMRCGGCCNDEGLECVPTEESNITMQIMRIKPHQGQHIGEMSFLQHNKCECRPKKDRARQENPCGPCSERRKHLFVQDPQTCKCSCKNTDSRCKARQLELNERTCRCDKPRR
Description: The Flk-1/SEAP protein was produced and purified as described by Tessler et al. (1994). Basically, the extracellular domain of Flk-1(sFlk-1) was produced in Spodoptera frugiperda (Sf9) cells and purified by immunoaffinity techniques utilizing a monoclonal anti-Flk-1 antibody (1A8). sFlk-1 was then biotinylated and bound on avidin-coated plates.
The reactivity was determined as described above for the initial screening.
A capture ELISA was also developed. In the capture ELISA, microtiter plates were coated overnight at 4° C. with 100 ng of the indicated antibody. […] Streptavidin conjugated to peroxidase (Kirkegaard & Perry Laboratories, Inc.), diluted 1:2000, was used as a second layer and developed.

[4] = biological target: T2, denatured VEGF121 and VEGF165 (Homo sapiens, UniProt P15692); assay: Western blot analysis; type: binding; settings: reducing and non-reducing conditions
T2 sequence (P15692 27-191 isoform P15692-4): T1 sequence (P15692 27-191 isoform P15692-4)
Description: The nitrocellulose membrane was blocked using Sea-Block PP82-41 (East Coast Biologics, Berwick, Me.), and probed with primary antibodies using a mini-blotter apparatus (Immunetics, Cambridge, Mass.). The membranes were developed after incubation with the appropriate peroxidase-conjugated secondary antibody by ECL enhanced chemiluminescence.
Western blot analyses of anti-VEGF antibodies were conducted by separating VEGF165 in the presence of 5% FCS using SDS-PAGE on a 12% gel and analyzing by a standard western blotting protocol using ECL detection. The primary antibodies were incubated with the nitrocellulose membrane using a multi-lane mini-blotter apparatus.

[5] = tested on: VEGF-mediated growth of ABAE cells; assay: Endothelial cell growth assay (MTS); type: cell-based, bovine; settings: Table 5
[6] = tested on: NCI-H358 NSCLC and HT29 colon adenocarcinoma xenografts and normal organs; assay: In vivo localization to human tumor xenografts in mice
Description: Tumors were grown subcutaneously in immunocompromised mice (NCI-H358 NSCLC in nu/nu mice and HT29 colon adenocarcinoma in SCID mice) until the tumnor volume was approximately 1 cm^3. 100 μg of unlabeled antibody for studies using SCID mice, or 100 μg of biotinylated antibody for studies using nude mice, was injected intravenously via a tail vein. Twenty four hours later, the mice were anesthetized, perfused with PBS, and tumnor and organs including heart, lungs, liver, kidneys, intestines and spleen were collected and snap frozen in liquid nitrogen.
The tumor and organs from each mouse were sectioned on a cryostat and stained for antibody immunohistochemically as above, with the exception that sections from the nude mice were developed using peroxidase labeled streptavidin-biotin complex (Dako, Carpinteria, Calif.) and the sections from the SCID mice were developed using two peroxidase-conjugated secondary antibodies, a goat anti-mouse IgG+IgM followed by a rabbit anti-goat IgG.
100 μg of GV39M and 3E7 or isotype-matched control IgG were injected into SCID mice bearing HT29 human colonic adenocarcinomas. Twenty-four hours later, the mice were sacrificed, exsanguinated and the tumors and tissues were removed. Frozen sections of the tumors and tissues were analyzed immunohistochemically to determine the binding and distribution of the antibodies (Table 4).

[7] = tested on: VEGFR2 (KDR/Flk-1; sFlk-1); assay: ELISA, VEGF binding to VEGFR2-coated wells; parameters: species or system mouse
Description: (§1) FIG. 2. […] The plate was then incubated with rabbit anti-VEGF (A-20, Santa Cruz Biotechnology, Inc.) at 1 μg/ml and developed using a peroxidase conjugated goat anti-rabbit antibody. Assays were performed in triplicate. Mean percent binding in the absence of antibody is shown, together with the standard deviation.
(§2) The assay was also performed by coating wells of a microtiter plate with either control or test IgG.

VEGFR1 (Flt-1/Fc) = assay: ELISA, VEGF binding to VEGFR1-coated wells; settings: Table 5
Description: as §1, §2

NCI-H358 NSCLC = assay: Growth inhibition of newly-implanted NCI-H358 xenografts; type: in vivo, mouse; settings: 100 μg i.p. 2 times per wk from day 1, nu/nu mice
Description: (§3) FIG. 3A and FIG. 3B. […] FIG. 3A: 1×10^7 NCI-H358 NSCLC cells were injected subcutaneously into nu/nu mice on day 0. FIG. 3B: 5×10^6 A673 rhabdomyosarcoma cells were injected subcutaneously into nu/nu mice on day 0. Mice were injected i.p. with the indicated IgG on day 1 and 2 times/week thereafter. […] Tumors were measured 2-3 times per week. Mean and standard error is shown for the duration of the study in FIG. 3A, while data for the last day of the study (day 26) is shown in FIG. 3B.
(§4) Nu/nu mice were injected subcutaneously with either 1×10^7 NCI-H358 NSCLC cells or 5×10^6 A673 rhabdomyosarcoma cells on day 0. […] The tumors were then measured twice per wk for a period of approximately six wk for the NCI-H358 bearing mice and four wk for the A673 bearing mice. Tumor volume was calculated according to the formula: volume=L×W×H, where L=length, W=width, H=height.

A673 rhabdomyosarcoma [8] = assay: Growth inhibition of newly-implanted A673 xenografts; type: in vivo, mouse; settings: 100 μg i.p. 2 times per wk from day 1, nu/nu mice
Description: as §3, §4

NCI-H358 NSCLC tumors = assay: Treatment of established NCI-H358 xenografts; type: in vivo, mouse
Description: FIG. 4. […] Mean tumor volume along with the SEM over 116 days is shown.
(§5) FIG. 5A and FIG. 5B. […] Treatments (T) were 100 μg of the IgG given i.p., except for the initial treatment that consisted of 500 μg of the IgG given i.v. Mean tumor volume along with the SEM is shown. At the end of the study (day 116), the mice were sacrificed and the tumors dissected out and weighed. […] The mice were treated every other day as indicated (T). […] Mean tumor volume along with the SE is shown.
(§6) Male nu/nu mice bearing subcutaneous NCI-H358 tumors or HT1080 fibrosarcoma 200-400 mm^3 in size were injected i.p. with test or control antibodies. The NCI-H358 bearing mice were treated with 100 μg of antibodies per injection three times a week during the first week and twice a week during the second and third week. The mice were then switched to 50 μg per injection every five days. The HT1080 bearing mice were treated with 100 μg of the indicated antibody or saline every other day throughout the duration of the study. In both studies, mice were sacrificed when their tumors reached 2500 mm^3 size or earlier if tumors began to ulcerate.
Doses were 50-100 μg every 3-5 days. […] In addition to measuring mean tumor volume (FIG. 4), photographs of the mice from each treatment group were also taken to show the differences in tumor size and appearance at the end of the study.

HT1080 fibrosarcoma = assay: Treatment of established HT1080 xenografts; type: in vivo, mouse; settings: 100 μg i.p. every other day
Description: as §5, §6

A673 rhabdomyosarcoma [9] = assay: Treatment of established A673 tumors; type: in vivo, mouse; settings: mice with established tumors
[10] = tested on: LS174T colon adenocarcinoma; assay: Treatment of established LS174T tumors; type: in vivo, mouse; settings: mice with established tumors
[11] = 24 hours after i.v. antibody, 2C3 in NCI-H358/nu/nu, 3E7 and GV39M in HT29/SCID mice

With 2C3-GUS [Clone 2C3-GUS] the “Enzymatic activity of GUS” value (GUS enzymatic activity) was “retained enzymatic activity”, the “t 1/2β, clearance from the blood” value [1] was “about 25 hours” and the “t½α, clearance from the blood” value [1] was “about 6 hours”. For the same substance, the “Localization in tumor after i.v. injection” value [2] was “specifically localized to tumor vasculature and surrounding tumor stroma” and the “Staining of normal tissues after i.v. injection” value [2] was “unstained”.
For “2C3: anti-VEGF monoclonal antibody, IgG2a,k, hybridoma ATCC PTA 1595; blocks VEGF binding to VEGFR2 but not VEGFR1 [Clone 2C3]”, the “Predominant Reactivity” value [3] was “VEGF”, the “Reactivity with VEGF on western blots” value [4] was “react” and the “Blocks VEGF-induced proliferation” value [5] was “Yes”. The “Immunohistochemical Reactivity, Heart” value [6, 11] was “−”, the “Immunohistochemical Reactivity, Intestine” value [6, 11] was “−” and the “Immunohistochemical Reactivity, Kidney” value [6, 11] was “−”. For the same substance, the “Immunohistochemical Reactivity, Liver” value [6, 11] was “−”, the “Immunohistochemical Reactivity, Lung” value [6, 11] was “−” and the “Immunohistochemical Reactivity, Spleen” value [6, 11] was “−”. For the same substance, the “Immunohistochemical Reactivity, Tumor” value [6, 11] was 3+, the “In vivo tumor localization pattern” value ([6]; CT connective tissue, BV blood vessels) was “Moderate to strong” and the “Localization in the HT29 human tumor model” value ([6]; HT29) was “localized strongly to the connective tissue”. The “In vivo normal mouse tissue localization” value ([6]; mouse, in vivo) was “None detectable”, the “Structure specifically bound after i.v. injection” value ([6]; mouse, in vivo, iv) was “tumor stroma” and the “Blocking of VEGF binding to VEGFR2 in ELISA” value ([7]; 100-1000 fold excess) was “blocked”. For the same substance, the “Reduction in VEGF binding to VEGFR2” value ([7]; 100 fold molar excess over VEGF) was “about 74%”, the “VEGF bound to VEGFR2-coated wells, % of the amount bound in the absence of antibody” value ([7]; 1000-fold molar excess over VEGF (1 nM VEGF)) was roughly 19% and the “Reduction in VEGF binding to VEGFR2” value ([7]; 1000 fold molar excess over VEGF) was “about 81%”. The “Blocks VEGF from binding to VEGFR2” value ([7]; Table 5) was “Yes”, the “Blocks VEGF from binding to VEGFR1” value (VEGFR1 (Flt-1/Fc)) was “No” and the “Final tumor volume, NCI-H358 NSCLC” value (NCI-H358 NSCLC) was “approximately 150 mm^3”. For the same substance, the “Final tumor volume, A673 rhabdomyosarcoma” value (A673 rhabdomyosarcoma [8]) was “approximately 150 mm^3”, the “Mean tumor volume after approximately 14 wk of treatment” value (NCI-H358 NSCLC tumors; FIG. 5A study, 100 μg, at start 480 mm^3 (2C3), 428 mm^3 (3E7)) was 84 mm^3 and the “Decrease in mean tumor volume” value (NCI-H358 NSCLC tumors; FIG. 5A study, approximately 14 wk) was “approximately 80%”. For the same substance, the “Mean tumor weight at the end of the study” value (NCI-H358 NSCLC tumors; FIG. 5A study, day 116) was 0.054 g, the “Mean tumor volume at the end of the study, % of the initial mean tumor volume” value (NCI-H358 NSCLC tumors; established tumors 300-450 mm^3, 50-100 μg i.p. every 3-5 days, approximately 10 weeks of treatment) was 30% and the “Effect on growth of HT1080 tumors” value (HT1080 fibrosarcoma) was “arrested the growth of the tumors”. For the same substance, the “Effect on growth of established A673 tumors” value (A673 rhabdomyosarcoma [9]) was “significantly slowed the growth” and the “Effect on growth of established LS174T tumors” value [10] was “significantly slowed the growth”.
